Assay results reported in US20140010886A1, “COMPOSITIONS COMPRISING SACCHARIDE BINDING MOIETIES AND METHODS FOR TARGETED THERAPY” (GEORGIA TECH RESEARCH CORPORATION, priority 2011, published 2014).

Legend:
CD133+ GBM-CSCs = assay: Lectin panel labeling of CD133+ GBM-CSCs during differentiation (flow cytometry); assay type: binding, human; conditions: for recognition of GBM-CSCs by lectin after differentiation: after 12 days of differentiation; for recognition of undifferentiated GBM-CSCs by lectin: day 1, undifferentiated CD133+ GBM-CSCs
Protocol: The fact that lectin moieties recognize carbohydrates located on the surface of cells makes them a great tool to identify changes in glycosylation patterning during differentiation. We used a panel of 20 lectins to study the patterning of CD133^+ GBM-CSCs surface glycosylation during differentiation (Table 1). Neurospheres derived from CD133^+ GBM-CSCs were grown as mentioned above and were plated onto polyornithin and laminin coated tissue culture grade plastics. Within 10 hours the neuroshperes adhered and neurite formations were observed. Differentiation continued for 12 days, and harvested cells (day 1 and day 12) were labeled with our panel of lectins (FIG. 2A). […] Furthermore, the recognition and decrease in recognition of GalNAc and GlcNAc coincide with the expression of GBM-CSC marker CD133-glycosylation (CD133-G) and general stem cell markers OCT 4 and SOX2 (FIG. 3C). OCT 4 and SOX2 have been well studied in GBMs and are accepted indicators of sternness in GBM cell lines.

[1] = system: DBA positive sorted cells (CTB-1 GBM-CSCs); assay: Lectin reactivity of DBA positive sorted GBM-CSCs (flow cytometry); assay type: binding, human; conditions: for lectin reactivity of DBA positive sorted cells: day 1; for lectin reactivity of DBA positive sorted cells by day 12: day 12 of differentiation
Source text: The percent of cells with specific carbohydrate expression as determined by flow cytometry using 8 different lectins. The data are means+/−SD of 3 independent assays of CTB-1 GBM-CSCs. CTB-1 cell line was stained with CD133, OCT4, and SOX2 antibody in addition to lectin staining Statistical significance (p≦0.05) is indicated by asterisk.
DBA lectin positive cells made up less than 1% of the total population and phenotypically appeared to proliferate at a much slower rate than the DBA negative population. […] Increased proliferation in DBA negative populations can be visualized via microscopy at day 1 and day 12 (FIG. 7). At day 12 the DBA negative population appears to be denser than the DBA positive population (FIG. 7), however, both populations are able to produce GFAP positive cells (Astrocytes) identical to the CD133 positive sorted cells (FIG. 7). […] DBA negative sorted cells contradict the aforementioned, and show low reaction towards GalNAc and GlcNAc recognizing lectins and this continues to decrease by day 12 (FIG. 8B). Con A remains high throughout in both populations and serves as a positive control (FIGS. 8A and 8B). However, GBM-CSC marker CD133-G and general stem cell markers OCT 4 and SOX 2 are high in the DBA positive sorted cells, and similar to DBA reactivity, decreases substantially by day 12 of differentiation (FIG. 8A). However, in the DBA negative population these stem cell markers uniformly are low at day one and are almost non-existent by day 12 (FIG. 8A). Until now CD133 has been considered the only marker for CSCs derived from GBM brain tumors. However, using cell sorting technology, DBA lectin, which recognizes GalNAc, we were able to separate CD133^+ cells from CD133− cells.

| Molecule | recognition of GBM-CSCs by lectin after differentiation (CD133+ GBM-CSCs) | recognition of undifferentiated GBM-CSCs by lectin (CD133+ GBM-CSCs) | lectin reactivity of DBA positive sorted cells [1] | lectin reactivity of DBA positive sorted cells by day 12 [1] |
| --- | --- | --- | --- | --- |
| SBA: lectin soybean agglutinin, recognizes the glycan moiety GalNAc | markedly decreased | highly recognized | high reactivity | decrease |
| PNA: lectin peanut agglutinin, recognizes the glycan moiety GalNAc (protein, UniProt P02872 24-273, looked up) Galactose-binding lectin: AETVSFNFNSFSEGNPAINFQGDVTVLSNGNIQLTNLNKVNSVGRVLYAMPVRIWSSATGNVASFLTSFSFEMKDIKDYDPADGIIFFIAPEDTQIPAGSIGGGTLGVSDTKGAGHFVGVEFDTYSNSEYNDPPTDHVGIDVNSVDSVKTVPWNSVSGAVVKVTVIYDSSTKTLSVAVTNDNGDITTIAQVVDLKAKLPERVKFGFSASGSLGGRQIHLIRSWSFTSTLITTTRRSIDNNEKKIMNMASA | markedly decreased | highly recognized | high reactivity | decrease |
| ECL: erythrina cristagalli lectin, recognizes the glycan moiety GlcNAc (protein, listed as Homo sapiens) VETISFSFSEFEPGNNDLTLQGAAIITQSGVLQLTKINQNGMPAWDSTGRTLYTKPVHIWDMTTGTVASFETRFSFSIEQPYTRPLPADGLVFFMGPTKSKPAQGYGYLGVFNNSKQDNSYQTLAVEFDTFSNPWDPPQVPHIGIDVNSIRSIKTQPFQLDNGQVANVVIKYDASSKILLAVLVYPSSGAIYTIAEIVDVKQVLPEWVDVGLSGATGAQRDAAETHDVYSWSFHASLPETND | noticeably decreased | highly recognized | highly reactive | decreased |
